Source: the Human Domainome abundance scans (Beltran et al. 2025)

B1: Segment polarity protein dishevelled homolog DVL-3, residues 2 to 81; numbered along this chain, Q92997 (parent)
chain: GETKIIYHLDGQETPYLVKLPLPAERVTLADFKGVLQRPSYKFFFKSMDDDFGVVKEEISDDNAKLPCFNGRVVSWLVSA

Variants of: B1
Experiment: abundance fitness (aPCA) (normalised: wild type 0, dead -1); higher = more abundant; growth selection in yeast, the domain comes from the species named
Details: Homo sapiens

Abundance fitness of substitutions, site by site:
L36: Q -0.668, P -0.244, E -0.728, S -0.629, R -0.528, T -0.824, A -0.785, C -0.563, K -0.725, H -0.988, D -0.37, G -0.993, M -0.465, V -0.187, N -0.522, F 0.097
V27: Y -0.651, G -0.675, A -0.478, N -0.785, R -0.875, I 0.003, K -0.469, C -0.119, T -0.762, S -0.675, Q -0.831, D -0.987, H -0.664, E -0.624, P -0.656, W -0.929, F -0.154
E25: H -0.022, R -0.59, M -0.335, F -0.913, K -0.474, W -0.457, T -0.356, V -0.807, S -0.115, N -0.006, L -0.825, Q -0.389, A -0.252, P -0.965, Y -0.501, I -0.658, G -0.096, C -0.035
Y41: S -0.72, W -0.331, K -0.787, C -0.227, Q -0.403, G -0.496, T -0.511, P -0.538, V -0.388, E -0.486, H -0.304, N -0.727, L -0.624, A -0.431, D -0.673, R -0.741
K33: Q -0.94, G -0.704, C -0.589, H -0.631, E -0.672, N -0.087, I -0.939, S -0.527, D -1.06, L -0.936, T -0.618, F -0.661, R -0.693, V -0.762, W -0.52, P -1.13, A -1.08
P39: N 0.061, Y -0.494, I -0.066, Q 0.11, S 0.051, A -0.14, T 0.062, K 0.194, E 0, G 0.062, H 0.073, V -0.106, M 0.006, C -0.306, R -0.037, W -0.466, D 0.357
L29: T -0.608, H -0.433, Y -0.321, K -0.917, M -0.71, Q -0.91, N -0.865, I -0.675, S -0.498, E -0.782, G -0.643, W -0.783, D -0.97, C -0.287, A -0.639
R26: V -0.08, Q 0.123, A 0.027, E 0.086, K 0.039, S -0.068, Y -0.414, G -0.441, M -0.276, I -0.34, H -0.182, P -0.675, W -0.78, C -0.102, L -0.081, D -0.027, T -0.188
Q37: A -0.1, F -0.433, W -0.483, P 0.092, G 0.048, L -0.154, V -0.124, E 0.048, H -0.073, Y -0.1, K 0.165, I -0.179, T -0.067, N 0.122, D 0.225, C -0.078, M -0.048
F32: I -0.469, L -0.337, K -1.01, D -0.688, A -0.622, E -0.649, Y -0.544, H -0.447, T -0.598, P -0.686, G -0.916, W -0.61, V -0.819, M -0.624, N -1.28, Q -0.855, R -0.543
